What all share (assay): coupled-enzyme assay of AMP release
Common to all, as to format: biochemical, Streptomyces clavuligerus
Holding throughout (details): ATP as co-substrate

Substrate in series [1]: C[C@H](CN[C@@H](CCCNC(=N)N)C(=O)O)C(=O)O
Substrate in series [2]: C[C@@H](CN[C@@H](CCCNC(=N)N)C(=O)O)C(=O)O
Substrate in series [3]: N=C(N)NCCC[C@H](NCCC(=O)O)C(=O)O

B1: β-lactam synthetase (βLS) (Streptomyces clavuligerus) (protein)
chain: MGAPVLPAAFGFLASARTGGGRAPGPVFATRGSHTDIDTPQGERSLAATLVHAPSVAPDRAVARSLTGAPTTAVLAGEIYNRDELLSVLPAGPAPEGDAELVLRLLERYDLHAFRLVNGRFATVVRTGDRVLLATDHAGSVPLYTCVAPGEVRASTEAKALAAHRDPKGFPLADARRVAGLTGVYQVPAGAVMDIDLGSGTAVTHRTWTPGLSRRILPEGEAVAAVRAALEKAVAQRVTPGDTPLVVLSGGIDSSGVAACAHRAAGELDTVSMGTDTSNEFREARAVVDHLRTRHREITIPTTELLAQLPYAVWASESVDPDIIEYLLPLTALYRALDGPERRILTGYGADIPLGGMHREDRLPALDTVLAHDMATFDGLNEMSPVLSTLAGHWTTHPYWDREVLDLLVSLEAGLKRRHGRDKWVLRAAMADALPAETVNRPKLGVHEGSGTTSSFSRLLLDHGVAEDRVHEAKRQVVRELFDLTVGGGRHPSEVDTDDVVRSVADRTARGAA
Regarding B1, the Km (as a rule, the concentration of substrate that gives half-maximal velocity) was 40 ± 10 µM in series [1], 60 ± 10 µM in series [2] and 37 ± 1 µM in series [3]. Also, the turnover number (kcat) (as a rule, the number of substrate molecules converted per active site and unit of time at saturation) in series [1] came to 0.032 ± 0.002 s⁻¹; in series [2], 0.023 ± 0.001 s⁻¹; in series [3], 0.87 ± 0.01 s⁻¹.

B2: β-lactam synthetase (βLS) (Streptomyces clavuligerus; V446G) (protein)
chain: MGAPVLPAAFGFLASARTGGGRAPGPVFATRGSHTDIDTPQGERSLAATLVHAPSVAPDRAVARSLTGAPTTAVLAGEIYNRDELLSVLPAGPAPEGDAELVLRLLERYDLHAFRLVNGRFATVVRTGDRVLLATDHAGSVPLYTCVAPGEVRASTEAKALAAHRDPKGFPLADARRVAGLTGVYQVPAGAVMDIDLGSGTAVTHRTWTPGLSRRILPEGEAVAAVRAALEKAVAQRVTPGDTPLVVLSGGIDSSGVAACAHRAAGELDTVSMGTDTSNEFREARAVVDHLRTRHREITIPTTELLAQLPYAVWASESVDPDIIEYLLPLTALYRALDGPERRILTGYGADIPLGGMHREDRLPALDTVLAHDMATFDGLNEMSPVLSTLAGHWTTHPYWDREVLDLLVSLEAGLKRRHGRDKWVLRAAMADALPAETVNRPKLGGHEGSGTTSSFSRLLLDHGVAEDRVHEAKRQVVRELFDLTVGGGRHPSEVDTDDVVRSVADRTARGAA
B2: the Michaelis-Menten constant (Km) was found to be 1900 ± 700 µM in series [1], 1200 ± 100 µM in series [2] and 610 ± 60 µM in series [3]. Besides, the kcat was 0.07 ± 0.002 s⁻¹ in series [1], 0.13 ± 0.01 s⁻¹ in series [2] and 0.13 ± 0.01 s⁻¹ in series [3].

B3: β-lactam synthetase (βLS) (Streptomyces clavuligerus; H447A) (protein)
chain: MGAPVLPAAFGFLASARTGGGRAPGPVFATRGSHTDIDTPQGERSLAATLVHAPSVAPDRAVARSLTGAPTTAVLAGEIYNRDELLSVLPAGPAPEGDAELVLRLLERYDLHAFRLVNGRFATVVRTGDRVLLATDHAGSVPLYTCVAPGEVRASTEAKALAAHRDPKGFPLADARRVAGLTGVYQVPAGAVMDIDLGSGTAVTHRTWTPGLSRRILPEGEAVAAVRAALEKAVAQRVTPGDTPLVVLSGGIDSSGVAACAHRAAGELDTVSMGTDTSNEFREARAVVDHLRTRHREITIPTTELLAQLPYAVWASESVDPDIIEYLLPLTALYRALDGPERRILTGYGADIPLGGMHREDRLPALDTVLAHDMATFDGLNEMSPVLSTLAGHWTTHPYWDREVLDLLVSLEAGLKRRHGRDKWVLRAAMADALPAETVNRPKLGVAEGSGTTSSFSRLLLDHGVAEDRVHEAKRQVVRELFDLTVGGGRHPSEVDTDDVVRSVADRTARGAA
Consider B3, for which, in series [2], the Km was found to be 80 ± 60 µM and the kcat came to 0.013 ± 0.001 s⁻¹.

B4: β-lactam synthetase (βLS) (Streptomyces clavuligerus; V446A) (protein)
chain: MGAPVLPAAFGFLASARTGGGRAPGPVFATRGSHTDIDTPQGERSLAATLVHAPSVAPDRAVARSLTGAPTTAVLAGEIYNRDELLSVLPAGPAPEGDAELVLRLLERYDLHAFRLVNGRFATVVRTGDRVLLATDHAGSVPLYTCVAPGEVRASTEAKALAAHRDPKGFPLADARRVAGLTGVYQVPAGAVMDIDLGSGTAVTHRTWTPGLSRRILPEGEAVAAVRAALEKAVAQRVTPGDTPLVVLSGGIDSSGVAACAHRAAGELDTVSMGTDTSNEFREARAVVDHLRTRHREITIPTTELLAQLPYAVWASESVDPDIIEYLLPLTALYRALDGPERRILTGYGADIPLGGMHREDRLPALDTVLAHDMATFDGLNEMSPVLSTLAGHWTTHPYWDREVLDLLVSLEAGLKRRHGRDKWVLRAAMADALPAETVNRPKLGAHEGSGTTSSFSRLLLDHGVAEDRVHEAKRQVVRELFDLTVGGGRHPSEVDTDDVVRSVADRTARGAA
As for B4, the Michaelis-Menten constant (Km) in series [1] is 330 ± 20 µM; in series [2], 460 ± 40 µM; in series [3], 360 ± 20 µM. Besides, the catalytic constant (kcat) in series [1] came to 0.014 ± 0.001 s⁻¹; in series [2], 0.34 ± 0.02 s⁻¹; in series [3], 0.28 ± 0.01 s⁻¹.

Source of the values: paper PMC3632419.
